Results from patent US20110256132A1 (published 2011).

What was measured:
[1] = molecular target: T1, mature myostatin (recombinant, dimeric) (mouse polyprotein used for in-house …, UniProt O08689 268-376); experiment: cell-based or functional assay
T1 sequence: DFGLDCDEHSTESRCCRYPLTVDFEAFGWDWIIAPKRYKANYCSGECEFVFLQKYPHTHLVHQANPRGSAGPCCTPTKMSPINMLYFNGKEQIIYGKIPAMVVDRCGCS

[2] = molecular target: T1, mature myostatin (recombinant, dimeric); experiment: ELISA: inhibition of 2 nM biotinylated myostatin binding to plate-coated ActRIIb, mean IC50 (= 0.88 nM by paragraph 327)
Experimental: Recombinant soluble ActRIIb (R&D Systems 339-RBB) was coated in wells of an ELISA plate at 1 μg/ml in carbonate buffer overnight at 4° C. Plates were blocked (see Block solution above at 2.3) and washed following standard ELISA protocols. In parallel, 2 nM biotinylated myostatin (in-house, as described in 1.1, biotinylated material) was pre-incubated with an antibody dilution series consisting of 10B3, 10B3C, and a negative control (IgG1 isotype control) for 2 hours at 37° C. The biotinylated myostatin:antibody reactions were then added to the ActRIIb coated plate for 1 hour at 37° C. Standard wash procedures were followed prior to addition of 1:1000 diluted streptavidin-HRP conjugate (Dako P0397) and a further 37° C. incubation for 1 hour. Plates were again washed and assayed at absorbance 490 nm following OPD substrate (Sigma) and acid stop solution treatment Inhibition curves and IC50 values for the inhibition of myostatin activity are shown in FIG. 5 and Table 8 respectively.

B1: mouse monoclonal antibody 10B3 (antibody, V domains shown)
VH: EVQLQQSGPELVKPGASVKISCKASGYSFTGYFMHWVKQSHGNILDWIGNIYPYNGVSNYNQRFKAKATLTVDKSSSTAYMELRSLTSEDSAVYYCARRYYYGTGPADWYFDVWGTGTTVTVSS
VL: DIKMTQSPSSMYASLRERVTITCKASQDINSYLSWFQQKPGKSPKTLIYRANRLVDGVPSRFSGSGSGQDYSLTISSLEYEDMGIYYCLQCDEFPLTFGAGTKLELK
notes: Mouse IgG2a/kappa from hybridoma; also called 10B3 mouse parental; 10B3 parental
Which “Mean IC50, myostatin responsive reporter gene assay (A204 cells, luciferase)” value [1] does the source give for B1 here?
The value was 10 nM.

And the IC50 [2]?
The IC50 was 0.132 µg/mL.
